The values below are quoted from earlier work in article PMC3471675.

Like-named read-outs stand apart in the source and are kept apart here.

A word on the Kd: it is the free concentration of one partner at which half of the binding sites on the other are occupied at equilibrium, for simple one-to-one binding.

Among the targets are IL-4Rα (Homo sapiens) (UniProt P24394); γc (Homo sapiens) (UniProt P31785); IL-21Rα (Homo sapiens) (UniProt Q9HBE5).
Series [1] has as its target IL-2Rβ (Homo sapiens) (UniProt P14784).
Series [2] has the same target. The source holds these as a separate data set.
For series [3], the target named is IL-7Rα (Homo sapiens) (UniProt P16871).
Series [4] shares this target. This is another data set of the same source.

UniProt P31785, sequence (P31785 23-262): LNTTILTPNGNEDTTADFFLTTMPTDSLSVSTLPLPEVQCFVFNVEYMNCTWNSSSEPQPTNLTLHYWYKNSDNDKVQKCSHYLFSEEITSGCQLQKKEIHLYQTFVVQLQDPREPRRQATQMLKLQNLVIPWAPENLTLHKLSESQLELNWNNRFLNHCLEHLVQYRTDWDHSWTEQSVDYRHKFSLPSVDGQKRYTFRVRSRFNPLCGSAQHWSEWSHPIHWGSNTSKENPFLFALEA
UniProt P24394, sequence (P24394 26-232): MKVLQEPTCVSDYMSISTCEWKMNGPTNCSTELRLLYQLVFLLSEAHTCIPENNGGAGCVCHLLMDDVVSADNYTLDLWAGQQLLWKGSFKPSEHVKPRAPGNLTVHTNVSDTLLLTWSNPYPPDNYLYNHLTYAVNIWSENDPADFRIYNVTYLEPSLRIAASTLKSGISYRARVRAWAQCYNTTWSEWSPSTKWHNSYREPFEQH
UniProt Q9HBE5, sequence (Q9HBE5 20-232): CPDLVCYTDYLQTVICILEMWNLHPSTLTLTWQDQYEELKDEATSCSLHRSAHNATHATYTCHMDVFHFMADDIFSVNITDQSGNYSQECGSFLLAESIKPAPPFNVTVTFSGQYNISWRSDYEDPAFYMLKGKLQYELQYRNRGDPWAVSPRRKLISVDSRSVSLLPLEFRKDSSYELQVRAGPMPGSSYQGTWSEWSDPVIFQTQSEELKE

Consider IL-2 (from UniProt P60568), for which, in the series with IL-2Rβ (Homo sapiens) [1], the Kd is 530 nM.

Consider IL-2Rβ (from UniProt P14784), for which the Kd in the series with IL-2Rβ (Homo sapiens) [2] is 3000 nM.

On to IL-4 (from UniProt P05112), for which the Kd with IL-4Rα (Homo sapiens) was 0.15 nM.

In the case of IL-7 (from UniProt P13232), the Kd with IL-7Rα (Homo sapiens) [3] is 59 nM.

As to IL-7Rα (from UniProt P16871), the values for the Kd with γc (Homo sapiens) and with IL-7Rα (Homo sapiens) [4] were 3000 nM and 610000 nM, respectively.

As for IL-21 (from UniProt Q9HBE4), in the series with IL-21Rα (Homo sapiens), the Kd was 0.07 nM.
